B1: Hairpin Ribozyme (parent)
chain: GUCCUCUUUCACGUGCGCGUGAAAGAGAGAAGUGAACCAGAGAAACACACGUUGUGGUAUAUUACCUGGUA

For 38 variants, self-cleavage results are on record in the RNAGym collection of RNA variant scans (doi:10.7554/elife.80360).

Variants of B1 are the subject of the data set. Put plainly: self-cleavage, relative activity (ratio to wild type); higher = more cleavage; co-transcriptional.
Turning to GUCCUCUUUCACGUGCGCGUGAAAGAGAGAAGUGAACCAGAGAGACACACGCUGUGGUAUAUUACCUGGUA [A44G U52C], the self-cleavage worked out at 0.223.

On to GUCCUCUUUCACGUGCGCGUGAAAGAGAGAAGUGAACCAGAGAGACACCCGUUGUGGUAUAUUACCUGGUA [A44G A49C], for which the self-cleavage turned out to be 0.0332.

As for GUCCUCUUUCACGUGCGCGUGAAAGAGAGAAGUGAACCAGAGAGACACGCGUUGUGGUAUAUUACCUGGUA [A44G A49G], the self-cleavage stood at 0.126.

With GUCCUCUUUCACGUGCGCGUGAAAGAGAGAAGUGAACCAGAGAGACACACGUUGUGGUAUAUUACCUGGUG [A44G A71G], the self-cleavage was 0.117.

For GUCCUCUUUCACGUGCGCGUGAAAGAGAGAAGUGAACCAGAGAGACACACGUUGUGGUAUACUACCUGGUA [A44G U62C], the self-cleavage stood at 0.12.

Take GUCCUCUUUCACGUGCGCGUGAAAGAGAGAAGUGAACCAGAGUAACACACGUUGUGGUACAUUACCUGGUA [A43U U60C]: the self-cleavage amounted to 0.221.

As for GUCCUCUUUCACGUGCGCGUGAAAGAGAGAAGUGAACCAGAGUAACACACCUUGUGGUAUAUUACCUGGUA [A43U G51C], the self-cleavage is 0.241.

On to GUCCUCUUUCACGUGCGCGUGAAAGAGAGAAGUGAACCAGAGUAACACACUUUGUGGUAUAUUACCUGGUA [A43U G51U], for which the self-cleavage was 0.0946.

Regarding GUCCUCUUUCACGUGCGCGUGAAAGAGAGAAGUGAACCAGAGUAACACACAUUGUGGUAUAUUACCUGGUA [A43U G51A], the self-cleavage worked out at 0.247.

Turning to GUCCUCUUUCACGUGCGCGUGAAAGAGAGAAGUGAACCAGAGAGACACACGUUGUGGUAUAUUACGUGGUA [A44G C66G], the self-cleavage was 0.15.

Regarding GUCCUCUUUCACGUGCGCGUGAAAGAGAGAAGUGAACCAGAGACACACCCGUUGUGGUAUAUUACCUGGUA [A44C A49C], the self-cleavage was found to be 0.103.

Take GUCCUCUUUCACGUGCGCGUGAAAGAGAGAAGUGAACCAGAGACACACACGUUGUGUUAUAUUACCUGGUA [A44C G57U]: the self-cleavage was 0.0814.

GUCCUCUUUCACGUGCGCGUGAAAGAGAGAAGUGAACCAGAGUAACACACGUUCUGGUAUAUUACCUGGUA [A43U G54C]: the self-cleavage was 0.0498.

Regarding GUCCUCUUUCACGUGCGCGUGAAAGAGAGAAGUGAACCAGAGUAACACACGUUAUGGUAUAUUACCUGGUA [A43U G54A], the self-cleavage amounted to 0.128.

For the variant GUCCUCUUUCACGUGCGCGUGAAAGAGAGAAGUGAACCAGAGACACACACGUUGUGGAAUAUUACCUGGUA [A44C U58A], the self-cleavage was determined as 0.0929.

For GUCCUCUUUCACGUGCGCGUGAAAGAGAGAAGUGAACCAGAGUAACACACGUUGUGGUAUAUUACCUGCUA [A43U G69C], the self-cleavage worked out at 0.119.

Regarding GUCCUCUUUCACGUGCGCGUGAAAGAGAGAAGUGAACCAGAGUAACACACGUUGUGGUAUAUUACCUGAUA [A43U G69A], the self-cleavage came out at 0.119.

Regarding GUCCUCUUUCACGUGCGCGUGAAAGAGAGAAGUGAACCAGAGAGAGACACGUUGUGGUAUAUUACCUGGUA [A44G C46G], the self-cleavage is 0.0715.

For GUCCUCUUUCACGUGCGCGUGAAAGAGAGAAGUGAACCAGAGUAACACACGUUGGGGUAUAUUACCUGGUA [A43U U55G], the self-cleavage was 0.232.

With GUCCUCUUUCACGUGCGCGUGAAAGAGAGAAGUGAACCAGAGAGACACACGUUGUGGUAUAUUACCCGGUA [A44G U67C], the self-cleavage is 0.145.

GUCCUCUUUCACGUGCGCGUGAAAGAGAGAAGUGAACCAGAGAGACACACGUUGUGGUGUAUUACCUGGUA [A44G A59G]: the self-cleavage amounted to 0.131.

GUCCUCUUUCACGUGCGCGUGAAAGAGAGAAGUGAACCAGAGAGACCCACGUUGUGGUAUAUUACCUGGUA [A44G A47C]: the self-cleavage was 0.222.

On to GUCCUCUUUCACGUGCGCGUGAAAGAGAGAAGUGAACCAGAGAGACUCACGUUGUGGUAUAUUACCUGGUA [A44G A47U], for which the self-cleavage is 0.163.

Regarding GUCCUCUUUCACGUGCGCGUGAAAGAGAGAAGUGAACCAGAGAGGCACACGUUGUGGUAUAUUACCUGGUA [A44G A45G], the self-cleavage amounted to 0.228.

Turning to GUCCUCUUUCACGUGCGCGUGAAAGAGAGAAGUGAACCAGAGAGUCACACGUUGUGGUAUAUUACCUGGUA [A44G A45U], the self-cleavage was 0.0878.

In the case of GUCCUCUUUCACGUGCGCGUGAAAGAGAGAAGUGAACCAGAGAUACACCCGUUGUGGUAUAUUACCUGGUA [A44U A49C], the self-cleavage was 0.0643.

On to GUCCUCUUUCACGUGCGCGUGAAAGAGAGAAGUGAACCAGAGAGACACACGUAGUGGUAUAUUACCUGGUA [A44G U53A], for which the self-cleavage amounted to 0.214.

Take GUCCUCUUUCACGUGCGCGUGAAAGAGAGAAGUGAACCAGAGAGACACACGUGGUGGUAUAUUACCUGGUA [A44G U53G]: the self-cleavage came out at 0.112.

For GUCCUCUUUCACGUGCGCGUGAAAGAGAGAAGUGAACCAGAGACACACACGUUGUGGUAUAUUACCUGGGA [A44C U70G], the self-cleavage stood at 0.

Take GUCCUCUUUCACGUGCGCGUGAAAGAGAGAAGUGAACCAGAGAGACACACGUUGUGGUAUAUUUCCUGGUA [A44G A64U]: the self-cleavage is 0.102.

As for GUCCUCUUUCACGUGCGCGUGAAAGAGAGAAGUGAACCAGAGAGACACACGUUGUGGUAUAUUCCCUGGUA [A44G A64C], the self-cleavage was 0.12.

Consider GUCCUCUUUCACGUGCGCGUGAAAGAGAGAAGUGAACCAGAGACUCACACGUUGUGGUAUAUUACCUGGUA [A44C A45U], for which the self-cleavage came to 0.0709.

With GUCCUCUUUCACGUGCGCGUGAAAGAGAGAAGUGAACCAGAGAGACACACGUUGUGGUAUAUUAGCUGGUA [A44G C65G], the self-cleavage worked out at 0.192.

In the case of GUCCUCUUUCACGUGCGCGUGAAAGAGAGAAGUGAACCAGAGAGACACACGUUGUGGCAUAUUACCUGGUA [A44G U58C], the self-cleavage is 0.0672.

GUCCUCUUUCACGUGCGCGUGAAAGAGAGAAGUGAACCAGAGUAACACACGUUGUGUUAUAUUACCUGGUA [A43U G57U]: the self-cleavage came out at 0.152.

As for GUCCUCUUUCACGUGCGCGUGAAAGAGAGAAGUGAACCAGAGUAACACACGUUGUGAUAUAUUACCUGGUA [A43U G57A], the self-cleavage was found to be 0.119.

Turning to GUCCUCUUUCACGUGCGCGUGAAAGAGAGAAGUGAACCAGAGUAACACACGUUGUGGUAUAUUACCUGGGA [A43U U70G], the self-cleavage is 0.0463.

In the case of GUCCUCUUUCACGUGCGCGUGAAAGAGAGAAGUGAACCAGAGACACACACGUUGUGGUAUAUUAUCUGGUA [A44C C65U], the self-cleavage amounted to 0.142.
